B1: OR4K15 (parent)
chain: GUUAACGGUCAUAGGCCAUGGAAACUAGGAGCACCAUUUCGCUGCCAGUGAAGAAAUGAACAAAGAAAAUCUGGGCCAGGCAGGCAUCAAAAGAAAUAGUCUUGCGCUCAACCAGAAAGUCUGUAAUCAUUUUAAGGGUA
B2: LINE1-full (parent)
chain: UACGUAGGUGGUUUUCCCCUGAUAGUGCUAAGGGGGCCUGGAAGUUUGGACUGGGCAGAGCUCAACACAGCGUGGCAAAGUGGCUGUGGCUAGACUGCCUCUCUGGAUUCCUCGUCACUCAGCAGGGCAUCUCUGAGAGAAAUGCC

Variants of: B1
Experiment: self-cleavage, relative activity (ratio to wild type); higher = more cleavage; in vitro, sequencing; the parent is a self-cleaving ribozyme
Work on U2A A64G yielded a self-cleavage of 1.24.
U2A A22G showed a self-cleavage of 1.33.
U2C G104C gave a self-cleavage of 0.1.
In the case of U2A U12C, the self-cleavage is reported as 1.41.
For U2G A96U, the self-cleavage was 0.84.
Variant U2C G53A has a self-cleavage of 1.18.
Variant U3A A67U has a self-cleavage of 0.46.
A4G A114C showed a self-cleavage of 0.17.
In the case of U2A A68U, the self-cleavage is reported as 0.46.
With U2A A68G the self-cleavage was 0.8.
Variant U3A A95G has a self-cleavage of 1.42.
U3A A78G gave a self-cleavage of 0.14.
U2C A69G gave a self-cleavage of 0.91.
Variant A4G A95C has a self-cleavage of 1.49.
With A4G A95G the self-cleavage was 1.4.
For U3A A36G, the self-cleavage was 0.85.
For U3A A36U, the self-cleavage was 1.61.
U3A A96G showed a self-cleavage of 1.18.
U3G G41U showed a self-cleavage of 1.
In the case of A4G A24C, the self-cleavage is reported as 1.03.
U3G U37C showed a self-cleavage of 1.52.
U2C C42U showed a self-cleavage of 1.46.
U3G A66G gave a self-cleavage of 1.01.
U3A U130C showed a self-cleavage of 1.09.
With G1A A59G the self-cleavage was 1.36.
In the case of U2A A60C, the self-cleavage is reported as 1.97.
In the case of U2A A60G, the self-cleavage is reported as 1.13.
For U2C U132A, the self-cleavage was 1.23.
For U2C A11G, the self-cleavage was 1.16.
Variant G1A A64G has a self-cleavage of 2.27.
Variant U2C U122G has a self-cleavage of 1.35.
U2C U122C showed a self-cleavage of 0.25.
With A4G G106A the self-cleavage was 0.02.
Variant U2C U100C has a self-cleavage of 1.61.
Variant U2A A117U has a self-cleavage of 0.49.
U2A A117G showed a self-cleavage of 0.59.
For U3A U102C, the self-cleavage was 1.99.
U2C U43A gave a self-cleavage of 1.
In the case of U2C U43C, the self-cleavage is reported as 1.57.
In the case of A4G G41A, the self-cleavage is reported as 1.43.
A4G U100C gave a self-cleavage of 1.42.
With U3C U132A the self-cleavage was 1.58.
Variant U2C C10A has a self-cleavage of 1.94.
For A4G G15C, the self-cleavage was 1.28.
With U2A U72C the self-cleavage was 0.48.
A4G A55G gave a self-cleavage of 1.13.
U3C A52G showed a self-cleavage of 1.1.
For U2C A117U, the self-cleavage was 1.05.
Variant U2C G119A has a self-cleavage of 1.05.
Work on U2G A78U yielded a self-cleavage of 0.4.
U2A A89G showed a self-cleavage of 1.07.
For U3G A5C, the self-cleavage was 1.53.
In the case of U3C G28U, the self-cleavage is reported as 2.64.
Work on U3A U122C yielded a self-cleavage of 1.35.
In the case of U3C A55G, the self-cleavage is reported as 1.1.
In the case of U3C U19C, the self-cleavage is reported as 1.88.
Variant U3C U38C has a self-cleavage of 0.98.
With U2A A95U the self-cleavage was 0.86.
Work on U2A A95G yielded a self-cleavage of 1.21.
U3C A60C showed a self-cleavage of 0.91.
Variant U3C U39C has a self-cleavage of 1.15.
In the case of U3A A11G, the self-cleavage is reported as 1.03.
With U2A A90U the self-cleavage was 1.25.
U3C A114G gave a self-cleavage of 0.47.
In the case of A4G A90G, the self-cleavage is reported as 1.11.
Variant U2C G106A has a self-cleavage of 0.03.
U2C A30C showed a self-cleavage of 1.44.
U2C A30U showed a self-cleavage of 0.98.
Work on U2A U49A yielded a self-cleavage of 1.64.
In the case of G1U A95G, the self-cleavage is reported as 0.56.
With U2A U9C the self-cleavage was 1.52.
U3C C71A showed a self-cleavage of 0.16.
Variant U3C C71U has a self-cleavage of 0.12.
G1A U37C gave a self-cleavage of 1.61.
For U3C A91G, the self-cleavage was 0.84.
Work on U3C A91U yielded a self-cleavage of 1.11.
In the case of U3C A91C, the self-cleavage is reported as 0.84.
U2C G83A showed a self-cleavage of 0.87.
In the case of U2A A51G, the self-cleavage is reported as 0.51.
U2C U97C gave a self-cleavage of 0.55.
Work on U2C U127A yielded a self-cleavage of 2.05.
U2C U127C gave a self-cleavage of 0.9.
In the case of U3C A98U, the self-cleavage is reported as 2.88.
U2C A13U gave a self-cleavage of 1.78.
Work on U2A U57C yielded a self-cleavage of 0.92.
Variant U3C A135G has a self-cleavage of 0.99.
In the case of U3A A52U, the self-cleavage is reported as 0.58.
For A4G A78U, the self-cleavage was 0.63.
U2C A126G showed a self-cleavage of 1.22.
U3C A64G showed a self-cleavage of 0.7.
Variant U2C A62G has a self-cleavage of 0.36.
U2C A62C gave a self-cleavage of 1.39.
U3C A68G showed a self-cleavage of 0.86.
In the case of U3C A68C, the self-cleavage is reported as 1.6.
U3A A4G gave a self-cleavage of 1.4.
For G1U A63G, the self-cleavage was 0.92.
For U2G A135U, the self-cleavage was 1.03.
G1U A54G gave a self-cleavage of 1.44.
In the case of U2C A18G, the self-cleavage is reported as 0.6.
Work on U2C A18U yielded a self-cleavage of 0.37.
In the case of G1U U139C, the self-cleavage is reported as 0.98.
For U2A A56G, the self-cleavage was 0.89.
Work on A4G G138A yielded a self-cleavage of 0.99.
With U3C A22U the self-cleavage was 1.12.
Work on G1A U43C yielded a self-cleavage of 2.15.
In the case of U2A A116G, the self-cleavage is reported as 0.75.
Work on U2A A116U yielded a self-cleavage of 0.18.
G1C A91G showed a self-cleavage of 0.65.
Variant U3C A78U has a self-cleavage of 0.51.
For U3C A23G, the self-cleavage was 1.22.
In the case of A4G A64G, the self-cleavage is reported as 1.21.
Variant U2C A56G has a self-cleavage of 1.12.
U3C A54C gave a self-cleavage of 0.51.
Work on U2A A126G yielded a self-cleavage of 0.81.
In the case of U3C A62G, the self-cleavage is reported as 0.96.
U3C A62U gave a self-cleavage of 1.22.
Variant U2C A118G has a self-cleavage of 0.88.
With U2C A118U the self-cleavage was 0.44.
In the case of U2C A63G, the self-cleavage is reported as 1.12.
Variant U2C U108C has a self-cleavage of 0.03.
With U2C U87C the self-cleavage was 0.43.
U2A U39C showed a self-cleavage of 1.26.
Variant U3C A110U has a self-cleavage of 1.16.
With U3C A110G the self-cleavage was 0.19.
Variant A4G U38C has a self-cleavage of 1.15.
With U2C U103A the self-cleavage was 0.62.
G1C A111G showed a self-cleavage of 0.01.
A4G G65C gave a self-cleavage of 1.18.
U3C C107G showed a self-cleavage of 0.09.
Variant U3C U131C has a self-cleavage of 0.51.
In the case of A4G A56G, the self-cleavage is reported as 1.02.
In the case of U2C A59U, the self-cleavage is reported as 0.98.
With U2C A59G the self-cleavage was 0.91.
With U2C U72A the self-cleavage was 0.1.
U2C U72C showed a self-cleavage of 0.15.
U2C A91G gave a self-cleavage of 1.08.
U2C A91U gave a self-cleavage of 0.81.
Variant U2G A56G has a self-cleavage of 1.23.
With U2C C105U the self-cleavage was 0.03.
U3A A68G gave a self-cleavage of 2.27.
With A4G U70A the self-cleavage was 1.14.
U3C U100C gave a self-cleavage of 1.71.
With U2G A69U the self-cleavage was 0.94.
U2C U9C gave a self-cleavage of 0.83.
U2C U9A gave a self-cleavage of 0.57.
Variant A4G G14A has a self-cleavage of 1.05.
Work on A4G U72C yielded a self-cleavage of 0.21.
In the case of A4G U72A, the self-cleavage is reported as 0.22.
Work on U2C A36G yielded a self-cleavage of 1.25.
For U2C A36U, the self-cleavage was 1.11.
Variant U2A A63U has a self-cleavage of 1.62.
Variant U2A A91G has a self-cleavage of 0.7.
Variant U2G U39A has a self-cleavage of 0.87.
With U3G U9A the self-cleavage was 0.99.
U2C A134G showed a self-cleavage of 1.59.
For U2C A134U, the self-cleavage was 0.69.
For G1U A52G, the self-cleavage was 1.83.
A4G U39C showed a self-cleavage of 1.46.
Work on A4G U39G yielded a self-cleavage of 1.88.
In the case of U2A U139G, the self-cleavage is reported as 0.81.
With U2A U139A the self-cleavage was 1.04.
In the case of A4G A5G, the self-cleavage is reported as 1.25.
In the case of U3C A33G, the self-cleavage is reported as 0.79.

Variants of: B2
Experiment: as above
For A77G, the self-cleavage was 2.12.
With U13G U46C the self-cleavage was 1.33.
For A79G A92G, the self-cleavage was 0.18.
In the case of U108A U134C, the self-cleavage is reported as 1.19.
